Some results are limits rather than exact numbers.

What all share (assay type): cell-based
The subject of one assay is DND-41. Briefly: ADC cell viability assay (CellTiter-Glo, four days). Conditions: DND-41 (T cell leukemia); CCR7 receptor levels 1,700. As for the experimental part: (§1) Cytotoxic effects after binding of directly conjugated antibodies (ADCs) with various payloads and their internalization into CCR7(+) cells were studied by assessing cell viability after four days of treatment. Three fold dilutions of the ADCs were added to 384-well bottom white plates in triplicates ([…]). […] Cells were harvested (adherent cells were detached with Accutase) and resuspended to approximately 2×10^4cells/ml. Cells were added to 384-well plates on top of the antibody (20 μl/well). The plates were incubated for four days at 37° C. and 5% CO2. Subsequently, 20 μl/well of CellTiter-Glo solution (CellTiter-Glo® Luminescent Cell Viability Assay; Promega, #G7571) was prepared and added to the cells. Cell viability was determined by the luminescence signal, which was measured after 10 min of incubation at 22° C. and 400 rpm with the Envision reader. IC50 values were calculated using the Graphpad Prism software.
(§2) To assess the ADCs for target-specificity and receptor-level dependency, ADC activity was tested across cell lines with different CCR7 receptor levels. […] Cell lines were chosen based on similar sensitivity to payload.
(Cellular ATP, detected with luciferase, serves as a proxy for viable cell number.)

A further assay deals with CML-T1. The assay is described as above. Particulars: CML-T1 (T cell leukemia); CCR7 receptor levels ~29,000. How it is done: as §1, §2
A further assay relates to SR786. The description is as above. Conditions: SR786 (Anaplastic large T cell lymphoma); CCR7 receptor levels ~28,000. As for the experimental part: as §1, §2
Another assay has as its system DEL. The description is as above. Particulars: DEL (ALCL); CCR7 receptor levels ~100,000; Table 19. How it is done:
as §1

The test system of a further assay is KE97. The description is as above. Conditions: KE97 (Multiple Myeloma); CCR7 receptor levels ~100,000; Table 19. How it is done: as §1
Assay [1] has as its target T1, hCCR7 (CHO-flpin-hCCR7 cells) (Homo sapiens, UniProt P32248).
T1 construct: host or cells: CHO (CHO-flpin), doxycycline-induced
T1 sequence (P32248 25-378): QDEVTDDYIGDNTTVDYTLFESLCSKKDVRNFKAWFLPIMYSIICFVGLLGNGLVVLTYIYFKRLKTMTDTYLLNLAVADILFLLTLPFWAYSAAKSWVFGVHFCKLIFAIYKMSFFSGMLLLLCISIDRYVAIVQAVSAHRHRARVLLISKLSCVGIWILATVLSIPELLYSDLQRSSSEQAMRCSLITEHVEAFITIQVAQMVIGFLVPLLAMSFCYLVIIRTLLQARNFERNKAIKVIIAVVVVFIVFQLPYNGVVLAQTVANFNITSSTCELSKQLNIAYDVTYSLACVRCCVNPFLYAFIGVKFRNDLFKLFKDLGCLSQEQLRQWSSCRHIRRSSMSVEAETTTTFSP
The assay is described as follows: β-Arrestin assay (PathHunter), antagonistic mode. Conditions: parental anti-CCR7 antibodies; hCCL19 as ligand; FIGS. 4B, 4C. As for the experimental part: To determine functionality of the anti-CCR7 antibodies, the β-Arrestin assay was performed using the PathHunter Flash Detection Kit from DiscoverX (#93-0247) either in agonistic mode for assessment of agonistic function or antagonistic mode for assessment of antagonistic function.
In the antagonistic mode, CHO-flpin-hCCR7 cells were seeded as described above. The next day, a 6× working solution (0.5 μM×6=3.0 μM) in 1× assay buffer was made for each test antibody or positive control MAB197 (R&D reference antibody; ligand antagonist) or negative control hIgG. 5 μl of the 6× working solution of antibodies or controls were added to each well, briefly spun down, and incubated at 37° C./5% CO2 for 30 min. During incubation, serial dilutions of a 6× working solution in 1× assay buffer were made for hCCL19. Following incubation, 5 μl of the 6× working solution of hCCL19 were added to each well, briefly spun down, and incubated at 37° C./5% CO2 for 90 min. Following incubation, 25 μl of detection reagent were added to each well, incubated at room temperature in the dark while shaking for 20 min. Then, the luminescence signal for enzyme activity was measured on the Envision machine and analyzed in Excel.

Assay [2] deals with CCR7 and CD20 expressing JVM2 cells. Briefly: surrogate ADCC reporter assay. Particulars: JVM2 target cells and Jurkat-V158 effector cells. How it is done: Capacity of candidate antibodies to mediate ADCC was assessed using a surrogate ADCC reporter assay. CCR7 and CD20 expressing JVM2 cells were used as target cells. JVM2 cells were washed and re-suspended at 8×10^4 cells/ml cells/ml. Effector cells in this assay were a Jurkat cell line stably expressing CD16V158 and an NFAT dependent luciferase reporter (Jurkat-V158); expression of luciferase is a surrogate for canonical ADCC signaling through CD16. Briefly, Jurkat-V158 cells grown in suspension were spun down to remove spent media, the pellet was resuspended in assay media and adjusted to 1.6x10^6 cells/ml cells/mL. Mix equal volumes of effector and target cells to make a master mix of cells yielding a target to effector cell ratio of 1:5 or 1:20. A titration of antibody was diluted in assay media with a final top concentration of 50 ug/mL in the assay well. 12.5 uL of Ab solution was added to a 384 well round bottom plate and then 12.5 ul of the master cell mix was added. Antibody and cells were mixed well by pipetting and incubated for 4 hours at 37° C. in 5% CO2. Following incubation, 15 uL of Bright Glo substrate (Promega #G7572) was added to each well and shaken for 5 min at RT at 1050 rpm. Luminescent signal was read on the Envision plate reader (Perkin Elmer).
(In general: Reporter assays use an easily measured gene product as a stand-in for the process of interest.)

B1: 674J13.CysMab.DAPA.AURIX2 (conjugate)
heavy: DVQLQESGPGLVKPSQTLSLTCTVSGYSITSGYSWHWIRQHPGKGLEWMAHIHSSGSTNYNPSLKSRITISRDTSKNQFSLKLSSVTAADTAVYYCARGGVQAFAYWGQGTLVTVSSASTKGPSVFPLAPSSKSTSGGTAALGCLVKDYFPCPVTVSWNSGALTSGVHTFPAVLQSSGLYSLSSVVTVPSSSLGTQTYICNVNHKPSNTKVDKRVEPKSCDKTHTCPPCPAPELLGGPSVFLFPPKPKDTLMISRTPEVTCVVVAVSHEDPEVKFNWYVDGVEVHNAKTKPREEQYNSTYRVVSVLTVLHQDWLNGKEYKCKVSNKALAAPIEKTISKAKGQPREPQVYTLPPSREEMTKNQVSLTCLVKGFYPCDIAVEWESNGQPENNYKTTPPVLDSDGSFFLYSKLTVDKSRWQQGNVFSCSVMHEALHNHYTQKSLSLSPGK
light: EIVLTQSPATLSASPGERVTMSCSASSSVIYMHWYQQKPGQAPRRWIYDTSKLASGVPARFSGSGSGTDYTLTISSMEPEDAAVYYCQQWSSNPLTFGQGTKLEIKRTVAAPSVFIFPPSDEQLKSGTASVVCLLNNFYPREAKVQWKVDNALQSGNSQESVTEQDSKDSTYSLSSTLTLSKADYEKHKVYACEVTHQGLSSPVTKSFNRGEC
With B1, the AMAX in the assay with DND-41 is less than 20% AMAX; in the assay on CML-T1 it was “(60% AMAX)”; in the assay with SR786 it was “(90% AMAX)”; in the assay on DEL it was “(>95% AMAX)”; in the assay on KE97, “(>95% AMAX)”.

B2: 674J13 Parental: parental anti-CCR7 antibody derived from the hybridoma (antibody, V domains shown)
VH: DVQLQESGPDLVKPSQSLSLTCTVTGYSITSGYSWHWIRQFPGNKLEWMAHIHSSGSTNYNPSLKSRISIIRDTSKNLFFLQLNSVTTEDTATYYCARGGVQAFAYWGQGTLVTVSA
VL: QIVLTQSPAIMSASPGEKVTMTCSASSSVIYMHWYQQKSGTSPKRWIYDTSKLASGVPARFSGSGSGTSYSLTISSMEAEDAATYYCQQWSSNPLTFGAGTTLELK
As for B2, the “functionality in β-Arrestin assay, antagonistic format” value in assay [1] is reported as “neutral, non-ligand blocking antibody”.

B3: 121G12 humanized CysMab: humanized anti-CCR7 IgG1 antibody with cysteine mutations, wild type Fc (antibody, V domains shown)
VH: EVQLVESGGGLVKPGGSLRLSCAASGFTFSTYAMSWVRQAPGKGLEWVATISDAGSYSYYPDNVKGRFTISRDNAKNSLYLQMNSLRAEDTAVYYCARRGSRYEEYYVMDYWGQGTTVTVSS
VL: EIVLTQSPATLSVSPGERVTLSCRASQSISNNLHWYQQKPGQAPRLLIKYASQSISGIPARFSGSGSGTDFTLTISSVEPEDFGVYFCQQSSSWLTFGQGTKLEIK
Regarding B3, in assay [2], the “ADCC activity; IC50 (nM)” value is reported as “Yes, but insufficient curve fitting”.
